Reference: the supplement of paper PMC7877785
± gives the uncertainty stated by the source.

Assay: self-splicing fitness, log relative to wild type (ln ratio); higher = more splicing; Tetrahymena group I intron in knt gene, E. coli kanamycin selection, DiMSum; sequences stand for … in CUCUCU…GGAGGGAAAAGUUAUCAGGCAUGCACCUGGUAGCUAGUCUUUAAACCAAUAGAUUGCAUCGGUUUAAAAGGCAAGACCGUCAAAUUGCGGGAAAGGGGUCAACAGCCGUUCAGUACCAAGUCUCAGGGGAAACUUUGAGAUGGCCUUGCAAAGGGUAUGGUAAUAAGCUGACGGACAUGGUCCUAACCACGCAGCCAAGUCCUAAGUCAACAGAUCUUCUGUUGAUAUGGAUGCAGUUCACAGACUAAAUGUCGGUCGGGGAAGAUGUAUUCUUCUCAUAAGAUAUAGUCGGACCUCUCCUUAAUGGGAGCUAGCGGAUGAAGUGAUGCAACACUGGAGCCGCUGGGAACUAAUUUGUAUGCGAAAGUAUAUUGAUUAGUUUUGGAGUACUCGUGGUCG
How it was run: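 DiMSum derived fitness as the error-weighted combination of fold changes across replicates, kanamycin versus no kanamycin, normalised to wild type. E. coli BL21(DE3) held the library, which randomised all eight P1ex-region intron nucleotides within the knt kanamycin-resistance gene on pET-22b(+). Six replicate transformations grew overnight at 37°C or 30°C on LB agar with or without 25 μg/mL kanamycin, also containing 100 μg/mL carbenicillin, 50 μM IPTG and 0.2% rhamnose, and pooled colonies were amplicon-sequenced on an Illumina HiSeq 2500.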

ACCCAGCAAUAUUACGUAAU
self-splicing fitness (ln) (30 °C): -0.676 ± 0.035
self-splicing fitness (ln) (37 °C): 0.426 ± 0.061

ACCCAGCAAUAUUACGUAUU
self-splicing fitness (ln) (30 °C): -1.93 ± 0.069
self-splicing fitness (ln) (37 °C): -0.714 ± 0.077

ACCCAGCAAUAUUACGUCAG
self-splicing fitness (ln) (30 °C): -3.14 ± 0.11
self-splicing fitness (ln) (37 °C): -1.22 ± 0.092

ACCCAGCAAUAUUACGUGAG
self-splicing fitness (ln) (30 °C): -0.151 ± 0.037
self-splicing fitness (ln) (37 °C): -0.0922 ± 0.054

ACCCAGCAAUAUUACGUGAU
self-splicing fitness (ln) (30 °C): -0.402 ± 0.034
self-splicing fitness (ln) (37 °C): 0.181 ± 0.048

ACCCAGCAAUAUUACGUUCC
self-splicing fitness (ln) (30 °C): -2.32 ± 0.11
self-splicing fitness (ln) (37 °C): -1.02 ± 0.14

ACCCAGCAAUAUUACGUUGG
self-splicing fitness (ln) (30 °C): -3.6 ± 0.1
self-splicing fitness (ln) (37 °C): -2.16 ± 0.11

ACCCAGCAAUAUUACGUUUG
self-splicing fitness (ln) (30 °C): -4.2 ± 0.13
self-splicing fitness (ln) (37 °C): -2.44 ± 0.11

ACCGAGCAAUAUUACGAAAA
self-splicing fitness (ln) (30 °C): -3.51 ± 0.3
self-splicing fitness (ln) (37 °C): -2.81 ± 0.24

ACCGAGCAAUAUUACGAAGG
self-splicing fitness (ln) (30 °C): -2.76 ± 0.17
self-splicing fitness (ln) (37 °C): -2.7 ± 0.28

ACCGAGCAAUAUUACGACGA
self-splicing fitness (ln) (30 °C): -1.16 ± 0.15
self-splicing fitness (ln) (37 °C): -0.75 ± 0.15

ACCGAGCAAUAUUACGAGAG
self-splicing fitness (ln) (30 °C): -3.89 ± 0.28
self-splicing fitness (ln) (37 °C): -2.63 ± 0.18

ACCGAGCAAUAUUACGAGCC
self-splicing fitness (ln) (30 °C): -3.21 ± 0.23
self-splicing fitness (ln) (37 °C): -3.23 ± 0.32

ACCGAGCAAUAUUACGAGUU
self-splicing fitness (ln) (30 °C): -3.25 ± 0.14
self-splicing fitness (ln) (37 °C): -2.87 ± 0.15

ACCGAGCAAUAUUACGAUAG
self-splicing fitness (ln) (30 °C): -3.12 ± 0.21
self-splicing fitness (ln) (37 °C): -2.42 ± 0.24

ACCGAGCAAUAUUACGAUUA
self-splicing fitness (ln) (30 °C): -2.31 ± 0.17
self-splicing fitness (ln) (37 °C): -3.01 ± 0.25

ACCGAGCAAUAUUACGCAAC
self-splicing fitness (ln) (30 °C): -2.01 ± 0.2
self-splicing fitness (ln) (37 °C): -0.42 ± 0.2

ACCGAGCAAUAUUACGCACG
self-splicing fitness (ln) (30 °C): -3.67 ± 0.31
self-splicing fitness (ln) (37 °C): -3.29 ± 0.33

ACCGAGCAAUAUUACGCCAG
self-splicing fitness (ln) (37 °C): -1.35 ± 0.27

ACCGAGCAAUAUUACGCCGU
self-splicing fitness (ln) (30 °C): -3.49 ± 0.3
self-splicing fitness (ln) (37 °C): -1.75 ± 0.2

ACCGAGCAAUAUUACGCGAC
self-splicing fitness (ln) (37 °C): -2.66 ± 0.44

ACCGAGCAAUAUUACGCGUG
self-splicing fitness (ln) (30 °C): -1.41 ± 0.079
self-splicing fitness (ln) (37 °C): -0.71 ± 0.08

ACCGAGCAAUAUUACGCUCA
self-splicing fitness (ln) (30 °C): -1.14 ± 0.13
self-splicing fitness (ln) (37 °C): -0.577 ± 0.2

ACCGAGCAAUAUUACGGCGA
self-splicing fitness (ln) (30 °C): -0.182 ± 0.086
self-splicing fitness (ln) (37 °C): -0.768 ± 0.12

ACCGAGCAAUAUUACGGUGG
self-splicing fitness (ln) (30 °C): -2.91 ± 0.13
self-splicing fitness (ln) (37 °C): -3.14 ± 0.29

ACCGAGCAAUAUUACGUAAU
self-splicing fitness (ln) (30 °C): -3.19 ± 0.12
self-splicing fitness (ln) (37 °C): -1.54 ± 0.13

ACCGAGCAAUAUUACGUACC
self-splicing fitness (ln) (30 °C): -3.88 ± 0.33
self-splicing fitness (ln) (37 °C): -2.37 ± 0.44

ACCGAGCAAUAUUACGUACG
self-splicing fitness (ln) (30 °C): -3.75 ± 0.28
self-splicing fitness (ln) (37 °C): -2.57 ± 0.22

ACCGAGCAAUAUUACGUAGG
self-splicing fitness (ln) (30 °C): -3.76 ± 0.2
self-splicing fitness (ln) (37 °C): -2.79 ± 0.24

ACCGAGCAAUAUUACGUCAC
self-splicing fitness (ln) (30 °C): -3.34 ± 0.27
self-splicing fitness (ln) (37 °C): -2 ± 0.21

ACCGAGCAAUAUUACGUCUA
self-splicing fitness (ln) (30 °C): -3.65 ± 0.28
self-splicing fitness (ln) (37 °C): -2.86 ± 0.17

ACCGAGCAAUAUUACGUGCA
self-splicing fitness (ln) (30 °C): -2.45 ± 0.13
self-splicing fitness (ln) (37 °C): -1.79 ± 0.12

ACCGAGCAAUAUUACGUGGU
self-splicing fitness (ln) (30 °C): -3.77 ± 0.17
self-splicing fitness (ln) (37 °C): -2.05 ± 0.18

ACCGAGCAAUAUUACGUUAC
self-splicing fitness (ln) (30 °C): -4.23 ± 0.22
self-splicing fitness (ln) (37 °C): -2.66 ± 0.18

ACCUAGCAAUAUUACGAAAG
self-splicing fitness (ln) (30 °C): -2.49 ± 0.11
self-splicing fitness (ln) (37 °C): -2.2 ± 0.13

ACCUAGCAAUAUUACGAAAU
self-splicing fitness (ln) (30 °C): -2.9 ± 0.16
self-splicing fitness (ln) (37 °C): -0.321 ± 0.15

ACCUAGCAAUAUUACGACAA
self-splicing fitness (ln) (30 °C): -0.996 ± 0.14
self-splicing fitness (ln) (37 °C): -0.881 ± 0.16

ACCUAGCAAUAUUACGACGC
self-splicing fitness (ln) (30 °C): -0.289 ± 0.11
self-splicing fitness (ln) (37 °C): 0.164 ± 0.12

ACCUAGCAAUAUUACGACUU
self-splicing fitness (ln) (30 °C): -0.837 ± 0.094
self-splicing fitness (ln) (37 °C): 0.22 ± 0.1

ACCUAGCAAUAUUACGAUAG
self-splicing fitness (ln) (30 °C): -3.99 ± 0.35
self-splicing fitness (ln) (37 °C): -2.49 ± 0.41

ACCUAGCAAUAUUACGAUCC
self-splicing fitness (ln) (30 °C): -2.35 ± 0.17
self-splicing fitness (ln) (37 °C): -1.15 ± 0.2

ACCUAGCAAUAUUACGCAAU
self-splicing fitness (ln) (30 °C): -2 ± 0.1
self-splicing fitness (ln) (37 °C): -0.798 ± 0.09

ACCUAGCAAUAUUACGCCAG
self-splicing fitness (ln) (30 °C): -1.83 ± 0.22

ACCUAGCAAUAUUACGCCGG
self-splicing fitness (ln) (30 °C): -0.962 ± 0.13
self-splicing fitness (ln) (37 °C): -0.598 ± 0.17

ACCUAGCAAUAUUACGCCGU
self-splicing fitness (ln) (30 °C): -0.801 ± 0.083
self-splicing fitness (ln) (37 °C): -0.776 ± 0.11

ACCUAGCAAUAUUACGCGAC
self-splicing fitness (ln) (30 °C): -2.55 ± 0.2
self-splicing fitness (ln) (37 °C): -0.855 ± 0.19

ACCUAGCAAUAUUACGCUCC
self-splicing fitness (ln) (30 °C): -1.55 ± 0.14
self-splicing fitness (ln) (37 °C): -0.204 ± 0.12

ACCUAGCAAUAUUACGCUCG
self-splicing fitness (ln) (30 °C): -1.43 ± 0.12
self-splicing fitness (ln) (37 °C): -1.48 ± 0.14

ACCUAGCAAUAUUACGCUGU
self-splicing fitness (ln) (30 °C): -1.54 ± 0.071
self-splicing fitness (ln) (37 °C): -0.737 ± 0.078
